In assay [1] the target is T1, recombinant human DLL4 (Cat# 1506-D4/CF, R&D Systems) (human, UniProt Q9NR61 27-529).
T1 construct: Bought protein; also called hDLL4; rHuman DLL4
Nature of the assay: ELISA, DLL4 coated, Fab 6.67 nM. The protocol: (§1) The plate was blocked by adding 1% BSA in Tris-buffered Saline Tween (TBST) and incubating for 1 hour at room temperature followed by washing 2 times with 150 μl TBST. A Fab antibody was serially diluted in 1% BSA in PBS. A 50 μl aliquot of each serial dilution was added, in triplicate, to each well and the plate was incubated for 1 hour at room temperature followed by washing 2 times with TBST. 50 μl of either goat anti-human kappa HRP conjugated secondary antibody (Cat # A7164-1 mL, Sigma-Aldrich) or goat anti-human lambda HRP conjugated secondary antibody (Cat # L1645-1 ml, Sigma-Aldrich), diluted 1:1000 in 1% BSA in PBS, was added to each well and the plate was incubated for 30 minutes at room temperature followed by washing 3 times with 200 μl TBST. Finally, 50 μl TMB one-component reagent (Cat # TMBW-1000-01, BioFax) was added and allowed to develop for 2 minutes at room temperature. The reaction was immediately halted by the addition of 50 μl 0.5M H₂SO₄ and the absorbance at 450 nm was measured using an ELISA plate reader.
On the technique in general: ELISA stands for enzyme-linked immunosorbent assay.

The target of assay [2] is T1, recombinant human DLL4 (Cat# …). The experiment in a line: ELISA, DLL4 coated, Fab 0.74 nM. How it is done:
as §1

Assay [3] has the same target. Nature of the assay: ELISA, DLL4 coated, Fab 12.5 nM. The gist of the method:
(§2)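 Read-out: A450 after 2 min TMB development, stopped with 0.5M H₂SO₄. Fabs bound for 1 h at room temperature to recombinant human DLL4-coated wells; bound Fab was detected with goat anti-human kappa or lambda HRP conjugate.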

The target is the same in assay [4]. The experiment in a line: ELISA, DLL4 coated, Fab 25 nM. The gist of the method:
(§3)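 Block 1% BSA/TBST 1 h RT; Fab serial dilutions (1% BSA/PBS, triplicate) 1 h RT; HRP anti-human kappa or lambda 1:1000, 30 min RT; TMB 2 min; 0.5M H₂SO₄ stop; OD450.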

Assay [5] shares this target. The experiment in a line: ELISA, DLL4 coated, Fab 3.70 nM. The protocol: as §1
For assay [6] the target is unchanged. The experiment in a line: ELISA, DLL4 coated, Fab 33.33 nM. How it is done:
as §1

Assay [7] shares this target. The experiment in a line: ELISA, DLL4 coated, Fab 50 nM. The gist of the method: as §2
Assay [8] has the same target. Nature of the assay: ELISA, DLL4 coated, Fab 20 nM. The procedure, abridged: as §3
For assay [9] the target is unchanged. The experiment in a line: ELISA, DLL4 coated, Fab 100 nM. The protocol:
as §1

For assay [10] the target is unchanged. The experiment in a line: ELISA, DLL4 coated, Fab 100 nM. The procedure, abridged:
as §2
The source holds these as a separate data set.

Assay [11] shares this target. The experiment in a line: ELISA, DLL4 coated, Fab 1.23 nM. How it is done:
as §1

The target is the same in assay [12]. Nature of the assay: ELISA, DLL4 coated, Fab 0.41 nM. How it is done:
as §1

For assay [13] the target is unchanged. Nature of the assay: ELISA, DLL4 coated, Fab 0.14 nM. How it is done:
as §1

The target is the same in assay [14]. Nature of the assay: ELISA, DLL4 coated, Fab 11.11 nM.
The target is the same in assay [15]. Nature of the assay: SPR (ProteOn), hDLL4 amine-coupled on chip. The gist of the method:
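Binding constants came from global fits of response data per surface. Three densities of amine-immobilised DLL4 were used, and Fabs started at 1 μM with 3-fold dilutions. Running buffer was HEPES 10 mM pH 7.4, NaCl 150 mM, Tween-20 0.01%, BSA 0.1 mg/ml at 25° C on a GLM chip.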

For assay [16] the target is unchanged. Nature of the assay: ELISA, DLL4 coated, Fab 2.22 nM. How it is done: as §1

Results on 2 molecules are retold here after patent US20110318339A1 (FABRUS, published 2011).

B1: Fab VH5-51_IGHD5-18*01>3_IGHJ4*01 G100K/G104T G24T/S28R/G35V & V3-4_IGLJ1*01 (Fab, V domains shown)
VH: EVQLVQSGAEVKKPGESLKISCKTSGYRFTSYWIVWVRQMPGKGLEWMGIIYPGDSDTRYSPSFQGQVTISADKSISTAYLQWSSLKASDTAMYYCARRKYSYTYDYFDYWGQGTLVTVSS
VL: QTVVTQEPSFSVSPGGTVTLTCGLSSGSVSTSYYPSWYQQTPGQAPRTLIYSTNTRSSGVPDRFSGSILGNKAALTITGAQADDESDYYCVLYMGSGISYVFGTGTKVTVL
notes: Fab made in E. coli: VH on CH1 with His6 and Flag tags (Plasmid A), VL on lambda CL (Plasmid E); also called H: KT TRV & L: wt
The Kd is the equilibrium constant for the complex coming apart. In general, koff refers to the first-order rate constant of dissociation. As a reminder, the kon is a measure of how fast the partners come together. B1: the “ELISA absorbance at 450 nm” value was determined as 0.023 A450 in assay [1]; 0.002 A450 in assay [2]; 0.23 A450 in [3]; 0.26 A450 in assay [4]; 0.03 A450 in [5]; 0.08 A450 in assay [6]. The “ELISA absorbance at 450 nm” value in assay [7] was 0.32 A450; in assay [8] it was 0.054 A450; in assay [9], 0.16 A450; in [10], 0.45 A450; in [11] it was 0.01 A450; in [12], 0.01 A450. In addition, the entries for the “ELISA absorbance at 450 nm” value in assay [13], in assay [14] and in assay [16] were 0 A450, 0.04 A450 and 0 A450, respectively. Besides, the Kd in assay [15] came to 36.2 nM. The koff in [15] was 0.0717 s⁻¹. Also, the kon in assay [15] was 2.09e+06 M⁻¹ s⁻¹.

B2: Fab VH5-51_IGHD5-18*01>3_IGHJ4*01 G100K/G104T G24T/S28R/G35V & V3-4_IGLJ1*01 V91L/S96P S52G (Fab, V domains shown)
VH: EVQLVQSGAEVKKPGESLKISCKTSGYRFTSYWIVWVRQMPGKGLEWMGIIYPGDSDTRYSPSFQGQVTISADKSISTAYLQWSSLKASDTAMYYCARRKYSYTYDYFDYWGQGTLVTVSS
VL: QTVVTQEPSFSVSPGGTVTLTCGLSSGSVSTSYYPSWYQQTPGQAPRTLIYGTNTRSSGVPDRFSGSILGNKAALTITGAQADDESDYYCLLYMGPGISYVFGTGTKVTVL
notes: Fab made in E. coli: VH on CH1 with His6 and Flag tags (Plasmid A), VL on lambda CL (Plasmid E); also called H: KT TRV & L: LP S52G
With B2, the “ELISA absorbance at 450 nm” value in [3] worked out at 0.63 A450; in [4], 0.9 A450; in [5] it was 0.06 A450; in [6], 0.35 A450; in assay [7] it was 1.02 A450; in [9] it was 0.69 A450. Moreover, the “ELISA absorbance at 450 nm” value in assay [10] was determined as 1.14 A450; in [11], 0.03 A450; in assay [12], 0.01 A450; in assay [13], 0.02 A450; in assay [14] it was 0.17 A450. Further, the Kd in assay [15] was 5 nM. In addition, the koff in [15] came to 0.0147 s⁻¹. Besides, the kon in assay [15] is 2.96e+06 M⁻¹ s⁻¹.
